Sequences and labels used below:
B1: MTSP-1 Q38H/I41S/D60bS/F93L/D96Y/ins97aV/F97D/T98P/F99L/C122S/I136F/Q192G/D217V (enzyme)
chain: VVGGTDADEGEWPWQVSLHALGHGHSCGASLISPNWLVSAAHCYIDSRGFRYSDPTQWTAFLGLHDQSQRSAPGVQERRLKRIISHPLFNYDVPLDYDIALLELEKPAEYSSMVRPISLPDASHVFPAGKAFWVTGWGHTQYGGTGALILQKGEIRVINQTTCENLLPQQITPRMMCVGFLSGGVDSCGGDSGGPLSSVEADGRIFQAGVVSWGVGCAQRNKPGVYTRLPLFRDWIKENTGV
B2: MTSP-1 Q38K/I41T/D60bY/ins97aV/F97D/T98P/F99L/C122S/I136T/Q192G/F208V/D217R (enzyme)
chain: VVGGTDADEGEWPWQVSLHALGKGHTCGASLISPNWLVSAAHCYIDYRGFRYSDPTQWTAFLGLHDQSQRSAPGVQERRLKRIISHPFFNDDVPLDYDIALLELEKPAEYSSMVRPISLPDASHVFPAGKATWVTGWGHTQYGGTGALILQKGEIRVINQTTCENLLPQQITPRMMCVGFLSGGVDSCGGDSGGPLSSVEADGRIVQAGVVSWGRGCAQRNKPGVYTRLPLFRDWIKENTGV
B3: MTSP-1 I41S/D60bH/ins97aV/F97D/T98P/F99L/C122S/I136V/Q192G/D217N (enzyme)
chain: VVGGTDADEGEWPWQVSLHALGQGHSCGASLISPNWLVSAAHCYIDHRGFRYSDPTQWTAFLGLHDQSQRSAPGVQERRLKRIISHPFFNDDVPLDYDIALLELEKPAEYSSMVRPISLPDASHVFPAGKAVWVTGWGHTQYGGTGALILQKGEIRVINQTTCENLLPQQITPRMMCVGFLSGGVDSCGGDSGGPLSSVEADGRIFQAGVVSWGNGCAQRNKPGVYTRLPLFRDWIKENTGV
B4: MTSP-1 Q38H/I41T/D60bH/ins97aV/F97D/T98P/F99L/C122S/I136F/L153P/Q192G/D217Y (enzyme)
chain: VVGGTDADEGEWPWQVSLHALGHGHTCGASLISPNWLVSAAHCYIDHRGFRYSDPTQWTAFLGLHDQSQRSAPGVQERRLKRIISHPFFNDDVPLDYDIALLELEKPAEYSSMVRPISLPDASHVFPAGKAFWVTGWGHTQYGGTGAPILQKGEIRVINQTTCENLLPQQITPRMMCVGFLSGGVDSCGGDSGGPLSSVEADGRIFQAGVVSWGYGCAQRNKPGVYTRLPLFRDWIKENTGV
B5: MTSP-1 Q38H/I41S/D60bT/F93L/ins97aV/F97D/T98P/F99L/S115N/C122S/Q192V/F208L/D217Q (enzyme)
chain: VVGGTDADEGEWPWQVSLHALGHGHSCGASLISPNWLVSAAHCYIDTRGFRYSDPTQWTAFLGLHDQSQRSAPGVQERRLKRIISHPLFNDDVPLDYDIALLELEKPAEYNSMVRPISLPDASHVFPAGKAIWVTGWGHTQYGGTGALILQKGEIRVINQTTCENLLPQQITPRMMCVGFLSGGVDSCVGDSGGPLSSVEADGRILQAGVVSWGQGCAQRNKPGVYTRLPLFRDWIKENTGV
B6: MTSP-1 Q38H/I41S/D60bT/F60eT/Y60gW/ins97aV/F97D/T98P/F99L/C122S/G151H/Q175L/Q192V (enzyme)
chain: VVGGTDADEGEWPWQVSLHALGHGHSCGASLISPNWLVSAAHCYIDTRGTRWSDPTQWTAFLGLHDQSQRSAPGVQERRLKRIISHPFFNDDVPLDYDIALLELEKPAEYSSMVRPISLPDASHVFPAGKAIWVTGWGHTQYGGTHALILQKGEIRVINQTTCENLLPQLITPRMMCVGFLSGGVDSCVGDSGGPLSSVEADGRIFQAGVVSWGDGCAQRNKPGVYTRLPLFRDWIKENTGV
B7: MTSP-1 Q38H/I41S/D60bG/ins97aV/F97D/T98P/F99L/M117T/C122S/N164D/Q192G/D217E (enzyme)
chain: VVGGTDADEGEWPWQVSLHALGHGHSCGASLISPNWLVSAAHCYIDGRGFRYSDPTQWTAFLGLHDQSQRSAPGVQERRLKRIISHPFFNDDVPLDYDIALLELEKPAEYSSTVRPISLPDASHVFPAGKAIWVTGWGHTQYGGTGALILQKGEIRVIDQTTCENLLPQQITPRMMCVGFLSGGVDSCGGDSGGPLSSVEADGRIFQAGVVSWGEGCAQRNKPGVYTRLPLFRDWIKENTGV
B8: MTSP-1 Q38H/I41S/D60bS/ins97aV/F97D/T98P/F99L/C122S/I136V/Q192G/D217V (enzyme)
chain: VVGGTDADEGEWPWQVSLHALGHGHSCGASLISPNWLVSAAHCYIDSRGFRYSDPTQWTAFLGLHDQSQRSAPGVQERRLKRIISHPFFNDDVPLDYDIALLELEKPAEYSSMVRPISLPDASHVFPAGKAVWVTGWGHTQYGGTGALILQKGEIRVINQTTCENLLPQQITPRMMCVGFLSGGVDSCGGDSGGPLSSVEADGRIFQAGVVSWGVGCAQRNKPGVYTRLPLFRDWIKENTGV
B9: MTSP-1 Q38H/I41S/D60bY/D96Y/ins97aV/F97D/T98P/F99L/L106M/C122S/I136M/Q192G/Q209L/D217T (enzyme)
chain: VVGGTDADEGEWPWQVSLHALGHGHSCGASLISPNWLVSAAHCYIDYRGFRYSDPTQWTAFLGLHDQSQRSAPGVQERRLKRIISHPFFNYDVPLDYDIALMELEKPAEYSSMVRPISLPDASHVFPAGKAMWVTGWGHTQYGGTGALILQKGEIRVINQTTCENLLPQQITPRMMCVGFLSGGVDSCGGDSGGPLSSVEADGRIFLAGVVSWGTGCAQRNKPGVYTRLPLFRDWIKENTGV
B10: MTSP-1 Q38K/I41S/D60bV/ins97aV/F97D/T98P/F99L/M117T/C122S/Q145E/Q175L/Q192G (enzyme)
chain: VVGGTDADEGEWPWQVSLHALGKGHSCGASLISPNWLVSAAHCYIDVRGFRYSDPTQWTAFLGLHDQSQRSAPGVQERRLKRIISHPFFNDDVPLDYDIALLELEKPAEYSSTVRPISLPDASHVFPAGKAIWVTGWGHTEYGGTGALILQKGEIRVINQTTCENLLPQLITPRMMCVGFLSGGVDSCGGDSGGPLSSVEADGRIFQAGVVSWGDGCAQRNKPGVYTRLPLFRDWIKENTGV
B11: MTSP-1 Q38H/I41S/D60bT/F60eS/Y60gW/ins97aV/F97D/T98P/F99L/C122S/G151N/Q175L/Q192D (enzyme)
chain: VVGGTDADEGEWPWQVSLHALGHGHSCGASLISPNWLVSAAHCYIDTRGSRWSDPTQWTAFLGLHDQSQRSAPGVQERRLKRIISHPFFNDDVPLDYDIALLELEKPAEYSSMVRPISLPDASHVFPAGKAIWVTGWGHTQYGGTNALILQKGEIRVINQTTCENLLPQLITPRMMCVGFLSGGVDSCDGDSGGPLSSVEADGRIFQAGVVSWGDGCAQRNKPGVYTRLPLFRDWIKENTGV
B12: MTSP-1 I41S/D60bS/D96V/ins97aV/F97D/T98P/F99L/C122S/Q192G/F208L/D217N (enzyme)
chain: VVGGTDADEGEWPWQVSLHALGQGHSCGASLISPNWLVSAAHCYIDSRGFRYSDPTQWTAFLGLHDQSQRSAPGVQERRLKRIISHPFFNVDVPLDYDIALLELEKPAEYSSMVRPISLPDASHVFPAGKAIWVTGWGHTQYGGTGALILQKGEIRVINQTTCENLLPQQITPRMMCVGFLSGGVDSCGGDSGGPLSSVEADGRILQAGVVSWGNGCAQRNKPGVYTRLPLFRDWIKENTGV
B13: MTSP-1 Q38H/I41S/D60bT/S90T/F97D/ins97aV/T98P/F99L/C122S/S127N/I136F/Q192G/D217Q (enzyme)
chain: VVGGTDADEGEWPWQVSLHALGHGHSCGASLISPNWLVSAAHCYIDTRGFRYSDPTQWTAFLGLHDQSQRSAPGVQERRLKRIITHPFFNDDVPLDYDIALLELEKPAEYSSMVRPISLPDANHVFPAGKAFWVTGWGHTQYGGTGALILQKGEIRVINQTTCENLLPQQITPRMMCVGFLSGGVDSCGGDSGGPLSSVEADGRIFQAGVVSWGQGCAQRNKPGVYTRLPLFRDWIKENTGV
B14: MTSP-1 L33M/Q38H/I41A/D60bA/ins97aV/F97D/T98P/F99L/C122S/Q192G/D217N (enzyme)
chain: VVGGTDADEGEWPWQVSMHALGHGHACGASLISPNWLVSAAHCYIDARGFRYSDPTQWTAFLGLHDQSQRSAPGVQERRLKRIISHPFFNDDVPLDYDIALLELEKPAEYSSMVRPISLPDASHVFPAGKAIWVTGWGHTQYGGTGALILQKGEIRVINQTTCENLLPQQITPRMMCVGFLSGGVDSCGGDSGGPLSSVEADGRIFQAGVVSWGNGCAQRNKPGVYTRLPLFRDWIKENTGV
B15: MTSP-1 Q38H/I41S/L52M/D60bH/D96V/ins97aV/F97D/T98P/F99L/C122S/T150A/Q192G/Q209L/D217T (enzyme)
chain: VVGGTDADEGEWPWQVSLHALGHGHSCGASLISPNWMVSAAHCYIDHRGFRYSDPTQWTAFLGLHDQSQRSAPGVQERRLKRIISHPFFNVDVPLDYDIALLELEKPAEYSSMVRPISLPDASHVFPAGKAIWVTGWGHTQYGGAGALILQKGEIRVINQTTCENLLPQQITPRMMCVGFLSGGVDSCGGDSGGPLSSVEADGRIFLAGVVSWGTGCAQRNKPGVYTRLPLFRDWIKENTGV
B16: MTSP-1 Q38H/I41S/D60bT/F93S/ins97aV/F97D/T98P/F99L/C122S/I136L/Q192G/D217A (enzyme)
chain: VVGGTDADEGEWPWQVSLHALGHGHSCGASLISPNWLVSAAHCYIDTRGFRYSDPTQWTAFLGLHDQSQRSAPGVQERRLKRIISHPSFNDDVPLDYDIALLELEKPAEYSSMVRPISLPDASHVFPAGKALWVTGWGHTQYGGTGALILQKGEIRVINQTTCENLLPQQITPRMMCVGFLSGGVDSCGGDSGGPLSSVEADGRIFQAGVVSWGAGCAQRNKPGVYTRLPLFRDWIKENTGV
B17: MTSP-1 Q38H/I41A/D60bV/F60eR/Y60gW/ins97aE/F97T/T98G/F99L/C122S/G151H/Q175L/Q192D (enzyme)
chain: VVGGTDADEGEWPWQVSLHALGHGHACGASLISPNWLVSAAHCYIDVRGRRWSDPTQWTAFLGLHDQSQRSAPGVQERRLKRIISHPFFNDTEGLDYDIALLELEKPAEYSSMVRPISLPDASHVFPAGKAIWVTGWGHTQYGGTHALILQKGEIRVINQTTCENLLPQLITPRMMCVGFLSGGVDSCDGDSGGPLSSVEADGRIFQAGVVSWGDGCAQRNKPGVYTRLPLFRDWIKENTGV
B18: MTSP-1 Q38H/I41A/D60bV/F60eR/Y60gW/D96I/ins97aN/F97Y/T98G/F99L/C122S/G151N/Q175L/Q192D (enzyme)
chain: VVGGTDADEGEWPWQVSLHALGHGHACGASLISPNWLVSAAHCYIDVRGRRWSDPTQWTAFLGLHDQSQRSAPGVQERRLKRIISHPFFNIYNGLDYDIALLELEKPAEYSSMVRPISLPDASHVFPAGKAIWVTGWGHTQYGGTNALILQKGEIRVINQTTCENLLPQLITPRMMCVGFLSGGVDSCDGDSGGPLSSVEADGRIFQAGVVSWGDGCAQRNKPGVYTRLPLFRDWIKENTGV
B19: MTSP-1 Q38H/I41S/D60bT/F60eS/Y60gW/D96K/ins97aA/F97D/T98P/F99L/C122S/G151H/Q175L/Q192D (enzyme)
chain: VVGGTDADEGEWPWQVSLHALGHGHSCGASLISPNWLVSAAHCYIDTRGSRWSDPTQWTAFLGLHDQSQRSAPGVQERRLKRIISHPFFNKDAPLDYDIALLELEKPAEYSSMVRPISLPDASHVFPAGKAIWVTGWGHTQYGGTHALILQKGEIRVINQTTCENLLPQLITPRMMCVGFLSGGVDSCDGDSGGPLSSVEADGRIFQAGVVSWGDGCAQRNKPGVYTRLPLFRDWIKENTGV
B20: MTSP-1 Q38H/I41T/D60bV/F60eR/Y60gW/D96I/ins97aN/F97Y/T98G/F99L/C122S/G151N/Q175L/Q192D (enzyme)
chain: VVGGTDADEGEWPWQVSLHALGHGHTCGASLISPNWLVSAAHCYIDVRGRRWSDPTQWTAFLGLHDQSQRSAPGVQERRLKRIISHPFFNIYNGLDYDIALLELEKPAEYSSMVRPISLPDASHVFPAGKAIWVTGWGHTQYGGTNALILQKGEIRVINQTTCENLLPQLITPRMMCVGFLSGGVDSCDGDSGGPLSSVEADGRIFQAGVVSWGDGCAQRNKPGVYTRLPLFRDWIKENTGV

The assay deals with plasma purified human complement protein C3 (human) (UniProt P01024). Description: cell-based or functional assay.
Sequence of plasma purified human complement protein C3 (human) (P01024 23-667, chain 1 of 2): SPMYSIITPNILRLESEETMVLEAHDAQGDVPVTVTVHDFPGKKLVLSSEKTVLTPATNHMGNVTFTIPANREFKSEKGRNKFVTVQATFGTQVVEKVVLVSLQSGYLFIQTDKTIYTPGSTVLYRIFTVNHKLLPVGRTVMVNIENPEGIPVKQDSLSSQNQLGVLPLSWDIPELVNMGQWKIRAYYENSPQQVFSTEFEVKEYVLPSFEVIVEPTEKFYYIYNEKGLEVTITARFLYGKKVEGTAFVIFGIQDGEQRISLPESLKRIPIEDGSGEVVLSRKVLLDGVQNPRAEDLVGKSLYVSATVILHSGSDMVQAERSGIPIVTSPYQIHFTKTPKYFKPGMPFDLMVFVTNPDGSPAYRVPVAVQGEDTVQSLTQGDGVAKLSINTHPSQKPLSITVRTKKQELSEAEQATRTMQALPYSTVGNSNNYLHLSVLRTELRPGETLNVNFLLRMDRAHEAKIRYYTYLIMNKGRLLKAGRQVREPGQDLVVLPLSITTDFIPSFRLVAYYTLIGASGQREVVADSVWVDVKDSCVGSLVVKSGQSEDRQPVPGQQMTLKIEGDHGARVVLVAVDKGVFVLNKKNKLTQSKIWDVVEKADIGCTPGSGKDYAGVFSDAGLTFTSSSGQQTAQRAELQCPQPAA
Sequence of plasma purified human complement protein C3 (human) (P01024 672-1663, chain 2 of 2): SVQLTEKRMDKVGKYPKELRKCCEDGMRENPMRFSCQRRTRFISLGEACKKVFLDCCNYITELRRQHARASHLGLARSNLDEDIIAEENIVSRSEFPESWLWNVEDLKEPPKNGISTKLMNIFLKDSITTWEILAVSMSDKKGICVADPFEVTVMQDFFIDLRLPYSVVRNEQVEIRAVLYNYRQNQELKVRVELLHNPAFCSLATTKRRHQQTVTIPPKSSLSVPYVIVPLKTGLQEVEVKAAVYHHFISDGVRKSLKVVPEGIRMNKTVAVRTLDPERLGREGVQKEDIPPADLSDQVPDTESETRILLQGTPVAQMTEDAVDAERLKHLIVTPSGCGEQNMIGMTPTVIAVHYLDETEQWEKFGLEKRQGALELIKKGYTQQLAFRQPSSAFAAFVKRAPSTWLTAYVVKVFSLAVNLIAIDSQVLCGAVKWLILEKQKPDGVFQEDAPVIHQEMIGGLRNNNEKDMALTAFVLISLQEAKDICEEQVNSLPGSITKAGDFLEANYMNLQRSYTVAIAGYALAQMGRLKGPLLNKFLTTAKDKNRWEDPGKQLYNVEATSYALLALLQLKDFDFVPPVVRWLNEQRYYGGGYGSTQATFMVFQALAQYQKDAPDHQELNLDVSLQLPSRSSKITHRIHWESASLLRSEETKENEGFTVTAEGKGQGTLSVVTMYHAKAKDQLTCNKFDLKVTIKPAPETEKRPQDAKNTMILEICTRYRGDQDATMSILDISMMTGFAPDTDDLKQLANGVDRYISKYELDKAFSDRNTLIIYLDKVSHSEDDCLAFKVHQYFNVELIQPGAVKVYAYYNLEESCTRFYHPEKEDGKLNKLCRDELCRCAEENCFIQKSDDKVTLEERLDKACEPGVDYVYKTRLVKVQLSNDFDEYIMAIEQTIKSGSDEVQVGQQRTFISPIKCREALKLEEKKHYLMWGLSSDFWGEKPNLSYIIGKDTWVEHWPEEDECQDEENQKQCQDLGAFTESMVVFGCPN
For B1, the EC50 of hC3 cleavage was determined as 9.56 nM.

For B2, the EC50 of hC3 cleavage came out at 19.5 nM.

Molecule B3 displayed an EC50 of hC3 cleavage of 20.6 nM.

Take B4: the EC50 of hC3 cleavage was found to be 25.5 nM.

Molecule B5 registered an EC50 of hC3 cleavage of 45.8 nM.

The molecule B6 registered an EC50 of hC3 cleavage of 5.52 nM.

As to B7, the EC50 of hC3 cleavage is 10.3 nM.

For the molecule B8, the EC50 of hC3 cleavage is 7.05 nM.

B9 registered an EC50 of hC3 cleavage of 1.97 nM.

The molecule B10 yielded an EC50 of hC3 cleavage of 11.8 nM.

Consider B11, for which the EC50 of hC3 cleavage came out at 15.4 nM.

For the molecule B12, the EC50 of hC3 cleavage was 52.4 nM.

With B13, the EC50 of hC3 cleavage came to 21.2 nM.

With B14, the EC50 of hC3 cleavage turned out to be 50 nM.

The molecule B15 returned an EC50 of hC3 cleavage of 16.9 nM.

Turning to B16, the EC50 of hC3 cleavage was 37 nM.

Molecule B17 came in with an EC50 of hC3 cleavage of 5.93 nM.

With B18, the EC50 of hC3 cleavage was 2.23 nM.

Regarding B19, the EC50 of hC3 cleavage was found to be 7.09 nM.

Regarding B20, the EC50 of hC3 cleavage came out at 9.75 nM.

Source of the values: patent publication US20240018502A1.
